Laboratory results: PMC5709738 (The EMBO Journal, 2017)

B1: Ame1-Okp1 (K. lactis, full length) (complex, Kluyveromyces lactis)
chain 1: MDALKQRHLKLLYRQRGSASRTIDYDVVIEPELREDGDLVTDSQLTEQDDQSFPDIQVPSPDRVDDFDLNQGDGLMDKATANEDDIDHVIGDEVAAVNAPVETSDLVIDTTQFDSMTLSQLSTPLTSMATIDVLRRLLETVILVTIEERTSQFNRAGSARLRLKLKLEIKILTWFLHQSKEDLITISELNLSNNDLLYRLKQISLLKNSLSRSLLDVRSAISSYEGPNNALSEEQVALQNFKRINELILSQRIDTIINNNLPPDTSTFDTESKKGLLPTLKTLNESLQNTIG
chain 2: MSKRYLDDVLSPDTGTSDSDSSIENLNADNYRIDIVNDNARRDDIDRIQSSNLNHEPPYNLEGVFAIDDDEHGDEMVRKDSDRRQDITEDNDDSFVPDITTPPRERKRVRFGINEKGGDEEFNNVSPWDFKRLIRKFYKEQLPDTYQIRNWKRPSKDMLTNFIDLIENNIELASEEVFKQYHQELNQLYPDSEEQAKLKDSLENKVFDTTYNIKKRLKRTKVPSKIWVDNLNMEYIYAKGESIKKRYKSELDRAEAIERQLIREEEHLKSLQEKGETQAKKRKQVLSKELSELSKTMHPSLSVALSNTFGLIKDDKMSNEIYQQDKIDFNLKLKTDFSKPLISEKEENSLNGLTNAMDNNRELVNEIFGKISALLQPKKNSNE
notes: Ame1 of Kluyveromyces lactis; Okp1 of Kluyveromyces lactis; stands as the Ame1-Okp1 part of COMA; also called Okp1-Ame1; source: E. coli BL21 Rosetta 2(DE3)pLysS, co-expressed with Ctf19 and Mcm21 versions

Experiments:
[1] = molecular target: the molecule itself; test: native MS; nanoflow spectra and tandem mode with collision-induced dissociation in the gas phase (argon); subassemblies stripped of subunits
[2] = molecular target: T1, COMA (K. lactis, full length: Ame1, Ctf19, Mcm21, Okp1) (Kluyveromyces lactis, UniProt Q6CUE5 1-292; Q6CRN7 1-270; Q6CVQ9 1-293; Q6CJY0 1-383); test: as above; conditions: both partners purified
T1 construct: Ame1 of Kluyveromyces lactis; Ctf19 of Kluyveromyces lactis; Mcm21 of Kluyveromyces lactis; Okp1 of Kluyveromyces lactis; copies: + + +
T1 sequence (looked up) 1: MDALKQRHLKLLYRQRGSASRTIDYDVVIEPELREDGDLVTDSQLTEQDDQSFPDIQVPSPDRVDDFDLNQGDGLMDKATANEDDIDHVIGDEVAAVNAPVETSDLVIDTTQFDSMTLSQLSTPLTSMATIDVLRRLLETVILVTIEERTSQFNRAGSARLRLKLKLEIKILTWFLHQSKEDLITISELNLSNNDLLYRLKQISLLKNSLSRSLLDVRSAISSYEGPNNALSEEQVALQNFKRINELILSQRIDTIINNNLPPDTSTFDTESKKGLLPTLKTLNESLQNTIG
T1 sequence (looked up) 2: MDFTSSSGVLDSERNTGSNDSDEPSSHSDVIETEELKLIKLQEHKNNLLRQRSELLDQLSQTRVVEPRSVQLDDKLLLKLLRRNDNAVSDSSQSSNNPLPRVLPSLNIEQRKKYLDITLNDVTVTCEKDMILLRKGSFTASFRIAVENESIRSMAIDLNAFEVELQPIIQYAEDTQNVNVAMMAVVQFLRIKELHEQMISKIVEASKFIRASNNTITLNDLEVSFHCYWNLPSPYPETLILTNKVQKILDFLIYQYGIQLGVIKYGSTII
T1 sequence (looked up) 3: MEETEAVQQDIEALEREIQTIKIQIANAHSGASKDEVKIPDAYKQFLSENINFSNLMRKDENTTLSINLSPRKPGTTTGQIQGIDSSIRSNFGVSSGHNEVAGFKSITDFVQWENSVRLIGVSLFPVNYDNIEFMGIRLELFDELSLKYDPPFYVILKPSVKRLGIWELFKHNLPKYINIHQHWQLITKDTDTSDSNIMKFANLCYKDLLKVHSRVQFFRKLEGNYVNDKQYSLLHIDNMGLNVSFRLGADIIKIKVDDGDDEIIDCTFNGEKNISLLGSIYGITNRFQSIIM
T1 sequence (looked up) 4: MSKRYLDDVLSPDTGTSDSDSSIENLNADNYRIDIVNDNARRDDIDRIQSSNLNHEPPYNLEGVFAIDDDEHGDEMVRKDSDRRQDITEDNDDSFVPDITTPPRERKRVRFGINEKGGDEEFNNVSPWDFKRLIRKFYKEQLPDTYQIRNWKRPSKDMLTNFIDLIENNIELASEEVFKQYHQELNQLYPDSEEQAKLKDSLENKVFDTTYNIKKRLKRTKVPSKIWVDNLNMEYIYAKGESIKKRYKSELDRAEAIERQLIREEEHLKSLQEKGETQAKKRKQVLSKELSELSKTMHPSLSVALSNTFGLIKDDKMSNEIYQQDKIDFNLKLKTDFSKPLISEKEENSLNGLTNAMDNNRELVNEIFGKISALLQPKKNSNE

[3] = molecular target: B1; test: as above; conditions: both partners purified
Nkp1 (K. lactis) = molecular target: T2, Nkp1 (K. lactis) (Kluyveromyces lactis, UniProt Q6CPR4 1-210); test: HDX-MS; purified assemblies in D2O buffer, quenched at pH ~2.5, pepsin column; exchange patterns compared between assemblies; conditions: both partners purified
T2 construct: Nkp1 of Kluyveromyces lactis; also called non-essential kinetochore protein 1; HisNkp1; source: E. coli BL21 Rosetta 2(DE3)pLysS, purified
T2 sequence (looked up): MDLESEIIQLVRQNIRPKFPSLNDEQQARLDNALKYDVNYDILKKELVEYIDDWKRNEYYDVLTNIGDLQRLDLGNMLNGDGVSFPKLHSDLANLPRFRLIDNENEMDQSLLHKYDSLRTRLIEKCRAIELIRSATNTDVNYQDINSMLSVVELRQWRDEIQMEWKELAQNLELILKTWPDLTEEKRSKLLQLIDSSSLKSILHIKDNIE

[4] = molecular target: T3, Ctf19_D-RWD-Mcm21_D-RWD-Okp1_229-383 (K. lactis) (Kluyveromyces lactis, UniProt Q6CRN7 107-270; Q6CVQ9 108-293; Q6CJY0 229-383); test: SEC; analytical SEC of purified K. lactis samples alone and combined, Superdex 200 10/300, 4°C; fractions on SDS-PAGE; conditions: both partners purified
T3 construct: Ctf19 of Kluyveromyces lactis, residues 107-270; Mcm21 of Kluyveromyces lactis, residues 108-293; also called Ctf19-Mcm21-Okp1 variant that includes Okp1 segment 3; CMO; source: E. coli BL21 Rosetta 2(DE3)pLysS, co-expressed, purified; copies: + +
T3 sequence (looked up) 1: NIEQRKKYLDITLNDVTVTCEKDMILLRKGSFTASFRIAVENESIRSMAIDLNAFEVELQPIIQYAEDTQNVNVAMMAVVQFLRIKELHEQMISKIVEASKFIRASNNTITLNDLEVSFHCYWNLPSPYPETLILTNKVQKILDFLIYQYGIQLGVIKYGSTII
T3 sequence (looked up) 2: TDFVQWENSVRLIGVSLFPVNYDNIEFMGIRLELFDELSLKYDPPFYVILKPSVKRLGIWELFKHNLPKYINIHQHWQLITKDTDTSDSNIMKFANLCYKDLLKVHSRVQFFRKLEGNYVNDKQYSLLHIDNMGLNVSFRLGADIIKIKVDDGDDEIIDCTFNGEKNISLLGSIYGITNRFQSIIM
T3 sequence (looked up) 3: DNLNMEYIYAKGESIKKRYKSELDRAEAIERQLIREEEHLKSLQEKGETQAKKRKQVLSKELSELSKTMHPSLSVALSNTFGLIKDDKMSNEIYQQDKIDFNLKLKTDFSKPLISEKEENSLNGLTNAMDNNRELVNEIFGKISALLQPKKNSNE

[5] = molecular target: T1, COMA (K. lactis, full length: Ame1, …); test: SEC; reconstituted K. lactis COMA-Nkp1-Nkp2; peak fractions on Coomassie-stained SDS-PAGE
[6] = molecular target: T4, full-length Ctf19-Mcm21 (K. lactis) (Kluyveromyces lactis, UniProt Q6CRN7 1-270; Q6CVQ9 1-293); test: MST; Ctf19-Mcm21 labelled with NT-647-NHS on lysines, ~27 nM; dilution series of peptide; 22-25°C; ITC/MST buffer; three dilution series; conditions: both partners purified
T4 construct: Ctf19 of Kluyveromyces lactis; Mcm21 of Kluyveromyces lactis; for microscale thermophoresis it was labelled on lysine side chains with the red dye NT-647-NHS; also stands for the Ctf19-Mcm21 subassembly of COMA in nanoflow mass spectra; source: E. coli BL21 Rosetta 2(DE3)pLysS, co-expressed, purified
T4 sequence (looked up) 1: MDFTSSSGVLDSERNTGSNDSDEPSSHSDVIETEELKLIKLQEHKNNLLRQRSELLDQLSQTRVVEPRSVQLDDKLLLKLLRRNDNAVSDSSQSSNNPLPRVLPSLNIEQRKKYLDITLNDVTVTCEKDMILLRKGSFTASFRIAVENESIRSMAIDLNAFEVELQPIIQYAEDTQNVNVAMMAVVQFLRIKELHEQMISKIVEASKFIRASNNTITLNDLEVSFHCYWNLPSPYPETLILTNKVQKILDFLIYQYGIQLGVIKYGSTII
T4 sequence (looked up) 2: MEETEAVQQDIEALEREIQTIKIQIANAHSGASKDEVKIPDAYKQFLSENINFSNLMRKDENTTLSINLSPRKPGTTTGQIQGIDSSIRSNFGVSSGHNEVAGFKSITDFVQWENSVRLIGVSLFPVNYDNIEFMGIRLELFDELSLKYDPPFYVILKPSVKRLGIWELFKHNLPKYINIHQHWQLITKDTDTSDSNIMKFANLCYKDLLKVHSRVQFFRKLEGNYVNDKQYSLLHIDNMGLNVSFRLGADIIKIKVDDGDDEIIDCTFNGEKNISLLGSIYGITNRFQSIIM

[7] = molecular target: T4, full-length Ctf19-Mcm21 (K. lactis); test: ITC; peptide at 120 uM injected into 13 uM Ctf19-Mcm21 in the cell, 25°C, ITC/MST buffer; single set of sites fit; three independent measurements; conditions: both partners purified
[8] = molecular target: T5, full-length Ctf19-Mcm21 (K. lactis) (Kluyveromyces lactis, UniProt Q6CRN7 1-270; Q6CVQ9 1-293); test: ITC
T5 chain 1: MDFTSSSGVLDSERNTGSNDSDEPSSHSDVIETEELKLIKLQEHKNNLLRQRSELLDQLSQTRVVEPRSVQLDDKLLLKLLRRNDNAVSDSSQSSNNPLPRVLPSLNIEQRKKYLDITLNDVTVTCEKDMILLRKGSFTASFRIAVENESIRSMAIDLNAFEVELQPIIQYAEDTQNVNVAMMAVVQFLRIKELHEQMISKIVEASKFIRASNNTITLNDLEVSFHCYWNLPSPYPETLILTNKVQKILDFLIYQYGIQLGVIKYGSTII
T5 chain 2: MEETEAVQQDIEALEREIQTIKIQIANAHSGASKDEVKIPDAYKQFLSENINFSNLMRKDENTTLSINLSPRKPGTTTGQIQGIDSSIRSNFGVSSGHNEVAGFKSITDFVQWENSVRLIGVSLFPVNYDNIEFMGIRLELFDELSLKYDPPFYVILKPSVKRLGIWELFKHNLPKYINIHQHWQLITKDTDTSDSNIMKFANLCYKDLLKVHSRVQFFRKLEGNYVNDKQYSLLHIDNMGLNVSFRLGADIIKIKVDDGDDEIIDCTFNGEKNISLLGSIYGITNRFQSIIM

B1
binding result [1]: binds

B2: Nkp2 (K. lactis) (natural protein, Kluyveromyces lactis, UniProt Q6CSR8 1-151, looked up)
chain: MLHEVLYKHLDGILVSRLYTEDQFVDLFSRTIPESNTVIASQLYKSYEENDQRIIEKIDKLIDNKLSLIRVELEREQIEDSISLEEVNKLLHSIDDMLQQHLNQLNIELDNKNTKLLKYAMELSDIEAIDTSMYDNVAKLITDMETNQPSS
notes: Nkp2 of Kluyveromyces lactis; also called non-essential kinetochore protein 2; source: E. coli BL21 Rosetta 2(DE3)pLysS, purified
binding result [2]: binds | binding result [3]: binds | binding result (Nkp1 (K. lactis)): binds

B3: Nkp1-Nkp2 heterodimer (K. lactis) (complex, Kluyveromyces lactis)
chain 1: MDLESEIIQLVRQNIRPKFPSLNDEQQARLDNALKYDVNYDILKKELVEYIDDWKRNEYYDVLTNIGDLQRLDLGNMLNGDGVSFPKLHSDLANLPRFRLIDNENEMDQSLLHKYDSLRTRLIEKCRAIELIRSATNTDVNYQDINSMLSVVELRQWRDEIQMEWKELAQNLELILKTWPDLTEEKRSKLLQLIDSSSLKSILHIKDNIE
chain 2: MLHEVLYKHLDGILVSRLYTEDQFVDLFSRTIPESNTVIASQLYKSYEENDQRIIEKIDKLIDNKLSLIRVELEREQIEDSISLEEVNKLLHSIDDMLQQHLNQLNIELDNKNTKLLKYAMELSDIEAIDTSMYDNVAKLITDMETNQPSS
notes: Nkp1 of Kluyveromyces lactis; Nkp2 of Kluyveromyces lactis; also called NN; source: E. coli BL21 Rosetta 2(DE3)pLysS, purified
binding result [4]: binds | binding result [5]: binds

B4: Okp1-derived synthetic peptide with the Ctf19-Mcm21 binding motif (Okp1 residues 318-337) (peptide, UniProt Q6CJY0 318-337, looked up)
peptide: SNEIYQQDKIDFNLKLKTDF
notes: also called Okp1-derived peptide; source: synthetic peptide (Protein Chemistry core facility, IMP, Vienna)
Kd [6]: ~80 nM | Kd [7]: ~40 nM | Kd [8]: 43 nM
